What was measured:
[1] = molecular target: T1, human CD40 on cells (human, UniProt P25942 21-277); assay: cell-based or functional assay
[2] = molecular target: T2, CD40-human Fc (huFc) fusion protein (Creative BioMart) (human, UniProt P25942 21-193); assay: ELISA: CD40-huFc mixed with antibody, binding to plate-bound HA-tagged CD40L; further: test concentration or dose not given here
T2 construct: bought; also called CD40-huFc; not shown: human Fc
Description: After development with TMB (3, 3′, 5, 5′-tetramethylbenzidine) substrate, the plates were read at OD₄₅₀.

[3] = molecular target: T1, human CD40 on cells; assay: cell-based or functional assay; remark: listed apart in the source
[4] = molecular target: T1, human CD40 on cells; assay: cell-based or functional assay; remark: listed apart in the source
Wherever moDC activation (IL-12p70, pg/mL) is given: test concentration or dose not given here.

T2 sequence (P25942 21-193 limits assumed): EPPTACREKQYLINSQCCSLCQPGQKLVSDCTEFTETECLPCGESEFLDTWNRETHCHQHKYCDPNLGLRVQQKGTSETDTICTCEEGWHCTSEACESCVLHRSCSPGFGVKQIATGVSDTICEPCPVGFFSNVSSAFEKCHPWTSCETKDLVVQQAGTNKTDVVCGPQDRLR
T1 sequence (P25942 21-277 limits assumed): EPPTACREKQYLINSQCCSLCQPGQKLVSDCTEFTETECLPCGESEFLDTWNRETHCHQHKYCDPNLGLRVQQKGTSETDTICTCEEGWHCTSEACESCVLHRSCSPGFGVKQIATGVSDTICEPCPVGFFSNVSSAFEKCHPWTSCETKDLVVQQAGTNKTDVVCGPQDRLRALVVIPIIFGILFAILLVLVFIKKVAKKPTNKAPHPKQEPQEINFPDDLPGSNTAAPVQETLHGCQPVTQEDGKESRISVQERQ

Row | Binder | moDC activation (IL-12p70, pg/mL) [1] [pg/mL] | OD450 Ratio [2] | OD450 with anti-CD40 antibody [2] [OD450] | Maximal activation (OD655) in HEK293 blue CD40 NFκB reporter cells [4] [OD655] | NFκB activation EC50 (SEAP, OD655) in HEK293 blue CD40 NFκB reporter cells [4] [µg/mL] | further results
1 | AD163.7.2 (antibody, V domains shown, mouse hybridoma monoclonal; also called muAb8) VH: QVQLQQSGPELVKSGASVKISCKASGYTFTDYYINWVKQRPGQGLEWIGWIFPGSGSVYCNEQFKGQATLTVDRSSSTAYMLLSSLTSEDSAVYFCASSLGKFAYWGQGTLVTVSA VL: DIVMTQSQKFMSTTVGDRVSITCKASQSVVTAVAWYQQKPGQSPKLLIYSASNRYTGVPDRFTGSGSGTDFALTIRTMQSEDLADYFCQQYSSYPYTFGGGTKLEIK | 905 | 0.08 ratio to isotype control | 0.066 | – | – | –
2 | AD163.162.1 (antibody, V domains shown, mouse hybridoma monoclonal; also called muAb6) VH: QVQLQQPGAELVRPGSSVKLSCKASGYTFTSYWMHWVKQRPIQGLEWIGNIDPSNGETHYNQKFKDKATLTVDKSSSTAYMQLSSLTSEDSAVYYCARERIYYSGSTYDGYFDVWGTGTTVTVSS VL: QIVLTQSPAIMSASPGEKVTMTCSASSSLSYMHWYQQKSGTSPKRWIYDTSKLASGVPARFSGSGSGTSYSLTISSMEAEDAATYYCQQWSSNPWTFGGGTKLEIK | 2160 | 0.57 ratio to isotype control | 0.455 | – | – | –
3 | AD163.27.12 (antibody, V domains shown, mouse hybridoma monoclonal; same VH as muAb6; also called muAb7) VH: QVQLQQPGAELVRPGSSVKLSCKASGYTFTSYWMHWVKQRPIQGLEWIGNIDPSNGETHYNQKFKDKATLTVDKSSSTAYMQLSSLTSEDSAVYYCARERIYYSGSTYDGYFDVWGTGTTVTVSS VL: QIVLTQSPAIMSASPGEKVTMTCSASSSLSYMHWYQQKSGTSPKRWIYDTSKLASGVPARFSGSGSGTSYSLTISSMEGEDGATYYCQQWSSNPWTFGGGTKLEIK | 1510 | 0.41 ratio to isotype control | 0.328 | – | – | –
4 | CP-870,893 (antibody, human IgG2, kappa, V domains shown) VH: not shown VL: DIQMTQSPSSVSASVGDRVTITCRASQGIYSWLAWYQQKPGKAPNLLIYTASTLQSGVPSRFSGSGSGTDFTLTISSLQPEDFATYYCQQANIFPLTFGGGTKVEIKR | – | – | – | – | – | NFκB activity EC50; HEK293 blue CD40 reporter cells co-cultured with CHO cells expressing CD16F [3]: 0.03 nM; NFκB activity EC50; HEK293 blue CD40 reporter cells co-cultured with CHO cells expressing CD16V [3]: 0.02 nM; NFκB activity EC50; HEK293 blue CD40 reporter cells co-cultured with CHO cells expressing CD32a [3]: 0.02 nM; NFκB activity EC50; HEK293 blue CD40 reporter cells co-cultured with CHO cells expressing CD32b [3]: 0.02 nM; NFκB activity EC50; HEK293 blue CD40 reporter cells co-cultured with CHO cells expressing CD64 [3]: 0.02 nM; NFκB activity EC50; HEK293 blue CD40 reporter cells co-cultured with FcγR negative CHO cells [3]: 0.03 nM
5 | Humanized muAb6 #3 (antibody, V domains shown) VH: EVQLVQSGAEVKKPGSSVKVSCKASGYTFTSYWMHWVRQAPGQGLEWIGNIDPSNGETHYAQKFQGRVTITVDKSTSTAYMELSSLRSEDTAVYYCARERIYYSGSTYDGYFDVWGQGTTVTVSS VL: DIQLTQSPSFLSASVGDRVTITCSASSSLSYMHWYQQKPGKSPKRWIYDTSKLASGVPSRFSGSGSGTEYTLTISSLQPEDFATYYCQQWSSNPWTFGGGTKVEIK | – | – | – | 0.32 | 4.31 | –
6 | Humanized muAb9 #6 (antibody, V domains shown) VH: EVQLQESGPGLVKPSETLSLTCTVSGYSISSNYYWNWIRQPPGKGLEWMGYIRYDGSNNYNPSLKSRVTISRDTSKNQFSLKLSSVTAADTAVYYCARLDYWGQGTTVTVSS VL: DAVMTQTPLSLSVTPGQPASISCRSSQSLENTNGNTFLNWYLQKPGQSPQLLIYRVSNRFSGVPDRFSGSGSGTDFTLKISRVEAEDVGVYYCLQVTHVPFTFGQGTKLEIK | – | – | – | 0.54 | 5.95 | –
7 | AD164.76.3 (antibody, V domains shown, mouse hybridoma monoclonal; also called muAb10) VH: DVQLQESGPGLVKPSQSLSLTCSVTGYSITSNYYWNWIRQFPGNKLEWMGYIRYDGSNNYNPSLKNRISITRDTSKNQFFLRLNSVTTEDTATYYCTRLDYWGQGTTLTVSS VL: DAVMTQTPLSLPVSLGDQASISCRSSQSLENSNGNTFLNWFLQKPGQSPQLLIYRISNRFSGVPDRFSGSGSGTDFTLKISRVEAEDLGVYFCLQVTHVPFTFGSGTKLEIK | 770 | 2.63 ratio to isotype control | 2.11 | – | – | –
8 | Humanized muAb9 #2 (antibody, V domains shown) VH: EVQLQESGPGLVKPSETLSLTCTVSGYSITSNYYWNWIRQPPGKGLEWMGYIRYDGSNNYNPSLKNRVTISRDTSKNQFSLKLSSVTAADTAVYYCARLDYWGQGTTVTVSS VL: DAVMTQTPLSLSVTPGQPASISCRSSQSLENTNGNTFLNWFLQKPGQSPQLLIYRVSNRFSGVPDRFSGSGSGTDFTLKISRVEAEDVGVYFCLQVTHVPFTFGQGTKLEIK | – | – | – | 0.27 | 0.29 | –
9 | Humanized muAb9 #4 (antibody, V domains shown) VH: EVQLQESGPGLVKPSETLSLTCTVSGYSITSNYYWNWIRQPPGKGLEWMGYIRYDGSNNYNPSLKNRITISRDTSKNQFSLKLSSVTAADTAVYYCARLDYWGQGTTVTVSS VL: DAVMTQTPLSLSVTPGQPASISCRSSQSLENTNGNTFLNWYLQKPGQSPQLLIYRVSNRFSGVPDRFSGSGSGTDFTLKISRVEAEDVGVYYCLQVTHVPFTFGQGTKLEIK | – | – | – | 0.61 | 5.55 | –
10 | AD164.14.6 (antibody, V domains shown, mouse hybridoma monoclonal; also called muAb9) VH: DVQLQESGPGLVKPSQSLSLTCSVTGYSITSNYYWNWIRQFPGNKLEWMGYIRYDGSNNYNPSLKNRISITRDTSKNQFFLKLNSVTTEDTATYYCARLDYWGQGTTLTVSS VL: DAVMTQTPLSLPVSLGDQASISCRSSQSLENTNGNTFLNWFLQKPGQSPQLLIYRVSNRFSGVPDRFSGSGSGTDFTLKISRVEAEDLGVYFCLQVTHVPFTFGSGTKLEIK | 878 | 2.35 ratio to isotype control | 1.88 | – | – | –
11 | AD165.1.2 (antibody, V domains shown, mouse hybridoma monoclonal; also called muAb5) VH: DVQLQESGPGLVEPSQSLFLTCSVTGYSITTNYNWNWIRQFPGNKLEWMGYIRHDGTNNYNPSLKNRISIIRDTPKNQFFLKLNSVTTEDTAIYFCTRLDYWGQGTSVTVSS VL: DAVMTQTPLSLPVSLGDQASISCRSSQSLENSYGNTFLNWFLQRPGQSPQLLIYRVSNRFCGVPDRFSGSGSGTDFTLKISRVEAEDLGIYFCLQVTHVPYTFGGGTKLEIK | 720 | 1.24 ratio to isotype control | 0.989 | – | – | –

Further lines, with some results ahead:

Row | moDC activation (IL-12p70, pg/mL) [1] [pg/mL] | OD450 Ratio [2] | OD450 with anti-CD40 antibody [2] [OD450] | Maximal activation (OD655) in HEK293 blue CD40 NFκB reporter cells [4] [OD655] | NFκB activation EC50 (SEAP, OD655) in HEK293 blue CD40 NFκB reporter cells [4] [µg/mL] | Binder | further results
12 | 1320 | 1.68 ratio to isotype control | 1.34 | – | – | AD163.10.7 (antibody, V domains shown, mouse hybridoma monoclonal; also called muAb4) VH: LVQPGGSLSLSCAASGFTFSDYYMSWVRQPPGKALEWLGFIRNKANGYTTEFSASVKGRFTISRDNSQSILYLQMNALRAEDSATYYCARYGGLRQGWYFDVWGTGTTVTVSS VL: DIQMTQTTSSLSASLGDRVTISCRASQDIRNYLNWYQQKPDGTVKLLIYYTSRLHSGVPSRFSGSGSGTDYSLTISNLEQEDIATYFCQQGKTLPWTFGGGSKLEMK | –
13 | – | – | – | 0.26 | 1.09 | Humanized muAb6 #1 (antibody, V domains shown) VH: EVQLVQSGAEVKKPGSSVKVSCKASGYTFTSYWMHWVRQAPGQGLEWIGNIDPSNGETHYNQKFKDRATLTVDKSTSTAYMELSSLRSEDTAVYYCARERIYYSGSTYDGYFDVWGQGTTVTVSS VL: DIQLTQSPSFLSASVGDRVTITCSASSSLSYMHWYQQKPGKSPKRWIYDTSKLASGVPSRFSGSGSGTEYTLTISSLQPEDFATYYCQQWSSNPWTFGGGTKVEIK | –
14 | – | – | – | 0.2 | 1.21 | Humanized muAb6 #2 (antibody, V domains shown) VH: EVQLVQSGAEVKKPGSSVKVSCKASGYTFTSYWMHWVRQAPGQGLEWIGNIDPSNGETHYNQKFKDRVTITVDKSTSTAYMELSSLRSEDTAVYYCARERIYYSGSTYDGYFDVWGQGTTVTVSS VL: DIQLTQSPSFLSASVGDRVTITCSASSSLSYMHWYQQKPGKSPKRWIYDTSKLASGVPSRFSGSGSGTEYTLTISSLQPEDFATYYCQQWSSNPWTFGGGTKVEIK | –
15 | 2220 | 2.22 ratio to isotype control | 1.78 | – | – | AD163.9.3 (antibody, V domains shown, mouse hybridoma monoclonal; also called muAb1) VH: QVQLQQPGAELVKPGASVKMSCKASGYTFTSYWITWVKQRPGQGLEWIGEINPGSGSTNYNEKFKSKATLTVDTSSSTAYMQLSSLTSEDSAVYYCARNRGTGDYWGQGTTLTVSS VL: DVVMTQTPLSLPVSLGDQASISCRSSQSLVHSYGNTYLHWYLQKPGQSPKFLIYKVSNRISGVPDRLSGSGSGTDFTLKISRVEPEDLGVYFCSQSTHVPYTFGGGTKLEIK | –
16 | – | – | – | 0.26 | 0.19 | Humanized muAb9 #1 (antibody, V domains shown) VH: EVQLQESGPGLVKPSETLSLTCTVSGYSITSNYYWNWIRQPPGKGLEWMGYIRYDGSNNYNPSLKNRITISRDTSKNQFSLKLSSVTAADTAVYYCARLDYWGQGTTVTVSS VL: DAVMTQTPLSLSVTPGQPASISCRSSQSLENTNGNTFLNWFLQKPGQSPQLLIYRVSNRFSGVPDRFSGSGSGTDFTLKISRVEAEDVGVYFCLQVTHVPFTFGQGTKLEIK | –
17 | – | – | – | 0.27 | 0.18 | Humanized muAb9 #3 (antibody, V domains shown) VH: EVQLQESGPGLVKPSETLSLTCTVSGYSISSNYYWNWIRQPPGKGLEWMGYIRYDGSNNYNPSLKSRVTISRDTSKNQFSLKLSSVTAADTAVYYCARLDYWGQGTTVTVSS VL: DAVMTQTPLSLSVTPGQPASISCRSSQSLENTNGNTFLNWFLQKPGQSPQLLIYRVSNRFSGVPDRFSGSGSGTDFTLKISRVEAEDVGVYFCLQVTHVPFTFGQGTKLEIK | –
